Test results taken from patent US7851182 (CONARIS RESEARCH INSTITUTE, dated 2010).

B1: sgp130(D1-D3)S2-Fc (Fc fusion)
chain: ELLDPCGYISPESPVVQLHSNFTAVCVLKEKCMDYFHVNANYIVWKTNHFTIPKEQYTIINRTASSVTFTDIASLNIQLTCNILTFGQLEQNVYGITIISGLPPEKPKNLSCIVNEGKKMRCEWDGGRETHLETNFTLKSEWATHKFADCKAKRDTPTSCTVDYSTVYFVNIEVWVEAENALGKVTSDHINFDPVYKVKPNPPHNLSVINSEELSSILKLTWTNPSIKSVIILKYNIQYRTKDASTWSQIPPEDTASTRSSFTVQDLKPFTEYVFRIRCMKEDGKGYWSDWSEEASGITYEDGGGGSGGGGS
notes: D4-D6 replaced by two GGGGS repeats; No tags; not shown: IgG-Fc part; its beginning is printed as 'SCD'; detected with an anti-human IgG (Fc) antibody
B2: sgp130(D1-D3)S3-Fc (Fc fusion)
chain: ELLDPCGYISPESPVVQLHSNFTAVCVLKEKCMDYFHVNANYIVWKTNHFTIPKEQYTIINRTASSVTFTDIASLNIQLTCNILTFGQLEQNVYGITIISGLPPEKPKNLSCIVNEGKKMRCEWDGGRETHLETNFTLKSEWATHKFADCKAKRDTPTSCTVDYSTVYFVNIEVWVEAENALGKVTSDHINFDPVYKVKPNPPHNLSVINSEELSSILKLTWTNPSIKSVIILKYNIQYRTKDASTWSQIPPEDTASTRSSFTVQDLKPFTEYVFRIRCMKEDGKGYWSDWSEEASGITYEDGGGGSGGGGSGGGGS
notes: D4-D6 replaced by three GGGGS repeats; No tags; not shown: IgG-Fc part; its beginning is printed as 'SCD'; detected with an anti-human IgG (Fc) antibody
B3: sgp130(D1-D3)S0-Fc (Fc fusion)
chain: ELLDPCGYISPESPVVQLHSNFTAVCVLKEKCMDYFHVNANYIVWKTNHFTIPKEQYTIINRTASSVTFTDIASLNIQLTCNILTFGQLEQNVYGITIISGLPPEKPKNLSCIVNEGKKMRCEWDGGRETHLETNFTLKSEWATHKFADCKAKRDTPTSCTVDYSTVYFVNIEVWVEAENALGKVTSDHINFDPVYKVKPNPPHNLSVINSEELSSILKLTWTNPSIKSVIILKYNIQYRTKDASTWSQIPPEDTASTRSSFTVQDLKPFTEYVFRIRCMKEDGKGYWSDWSEEASGITYED
notes: No spacer between D3 and Fc; V5 and 6xHis tags are not present; also called sgp130(D1-D3)Fc; sgp130(D1-3)Fc; not shown: IgG-Fc part; its beginning is printed as 'SCD'; detected with an anti-human IgG (Fc) antibody
B4: sgp130(D1-D3)S1-Fc (Fc fusion)
chain: ELLDPCGYISPESPVVQLHSNFTAVCVLKEKCMDYFHVNANYIVWKTNHFTIPKEQYTIINRTASSVTFTDIASLNIQLTCNILTFGQLEQNVYGITIISGLPPEKPKNLSCIVNEGKKMRCEWDGGRETHLETNFTLKSEWATHKFADCKAKRDTPTSCTVDYSTVYFVNIEVWVEAENALGKVTSDHINFDPVYKVKPNPPHNLSVINSEELSSILKLTWTNPSIKSVIILKYNIQYRTKDASTWSQIPPEDTASTRSSFTVQDLKPFTEYVFRIRCMKEDGKGYWSDWSEEASGITYEDGGGGS
notes: D4-D6 replaced by one GGGGS repeat; No tags; not shown: IgG-Fc part; its beginning is printed as 'SCD'; detected with an anti-human IgG (Fc) antibody

target: T1, IL-6/soluble IL-6 receptor complex (human, UniProt P05231 30-212; P08887 20-358, limits assumed); experiment: ELISA, coated Fc fusion, IL-6 + sIL-6R titrated, anti-sIL-6R detection
T1 construct: also called IL-6/sIL-6R complex; IL-6/sIL-6R
Description: Comparison of the IL-6/sIL-6R Complex Binding Properties of sgp130Fc and sgp130(D1-D3)S_n-Fc (A) Material The 96-well Microlon microtiter plates were purchased from Greiner Bio-One (Frickenhausen, Germany). Recombinant human IL-6 and soluble IL-6 receptor (sIL-6R) were obtained from BioSource (Solingen, Germany) and R&D Systems (Wiesbaden, Germany), respectively. The primary anti-sIL-6R antibody (clone M91, mouse IgG1) was from Beckman Coulter (Krefeld, Germany). The secondary anti-mouse IgG HRP-conjugated antibody from GE Healthcare (Freiburg, Germany) was the same as in the Western blotting experiments (see Example 1, A and C). Ready-to-use Tetramethylbenzidin (TMB) HRP substrate was purchased from Sigma-Aldrich (Taufkirchen, Germany).
For quality control and comparison between different lots of sgp130Fc variants, a standard ELISA was designed. All steps except for coating were carried out at room temperature, all washing steps were performed three times with a volume of 250 µl, and all conditions were measured in triplicate. A 96 well microtiter plate was coated with 100 ng/Well of original sgp130Fc as an internal standard and an equimolar quantity of sgp130(D1-D3)S_n-Fc in 100 µl PBS at 4° C. overnight. Thus, sgp130Fc and its variants served as capture reagent, while the bound sIL-6R was detected (see below). After washing with 0.05% Tween-20/PBS, wells were blocked with 200 µl/Well 3% BSA/PBS for 2 h. Subsequently, the blocking solution was removed, and wells were incubated for 1 h with a 1:2 dilution series (100 µl/Well) of recombinant human IL-6 (3.2 µg/ml to 50 ng/ml) and sIL-6R (1.6 µg/ml to 25 ng/ml) in 3% BSA/PBS. After washing with 0.05% Tween-20/PBS, wells were incubated with the primary anti-sIL-6R antibody diluted 1:2,000 in 3% BSA/PBS (100 µl/Well) for 1 h. Another series of three washing steps with 0.05% Tween-20/PBS was followed by a 1-h incubation with the secondary anti-mouse IgG HRP-conjugated antibody at 1:5,000 (100 µl/Well). After washing with 0.05% Tween-20/PBS and subsequently with dH_2O, plates were incubated with 100 µl/Well TMB substrate for about 5 min (depending on the intensity of the developing blue colour). The substrate reaction was stopped by adding 100 µl/Well 0.5 M sulfuric acid to the wells. Finally, the $A450$ was measured in a microplate reader.

Binding result, binds:
B1
B2
B3
B4
